The experiment deals with centromere protein A (CENP-A), histone H3 variant (human (endogenous in HcoEpiC, HeLa and SW480)) (UniProt P49450). In words: co-IP; sequential native CENP-A IP of the chromatin left unbound by the CENP-B IP ('ectopic CENP-A'); SW480 cells; quantitative fluorescent western blot, background-corrected, input-adjusted ratio to the CENP-B IP.

Drawing on PMC4363203, this text covers ATRX fold enrichment (Seq. CpA IP/CpB IP) and H3 fold enrichment (Seq. CpA IP/CpB IP) for two substances.

Chain of UniProt P49450 (P49450 whole entry, change not shown): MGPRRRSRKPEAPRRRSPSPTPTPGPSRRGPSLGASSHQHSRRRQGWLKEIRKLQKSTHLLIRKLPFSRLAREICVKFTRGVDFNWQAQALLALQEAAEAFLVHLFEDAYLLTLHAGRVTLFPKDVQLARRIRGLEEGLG

In the case of “ATRX, transcription-coupled histone chaperone (from UniProt P46100 1-2492) (natural protein)”, the ATRX fold enrichment (Seq. CpA IP/CpB IP) was found to be 0.81 fold.
On to “canonical histone H3 (from UniProt P68431 1-136) (natural protein)”, for which the H3 fold enrichment (Seq. CpA IP/CpB IP) was 2.91 fold.
